Patent US20230093708A1, “PROTEIN NANOPARTICLE DESIGN AND APPLICATION” (Duke University, priority 2020, published 2023)
Non-standard residues stand in square brackets, D forms with d. Phe(4-N3) = [N-]=[N+]=Nc1ccc(C[C@H](N)C(=O)O)cc1

Columns and labels:
Assay type in all cases: physicochemical
[1] = Temperature-programmed dynamic light scattering; conditions: between 4 °C and 37 °C; micelles 20-37 °C; 10 μM in 140 mM PBS
Method: Temperature-programmed dynamic light scattering experiments were carried out using a Dynapro plate reader (Wyatt Technology; Santa Barbara, Calif.) with samples filtered through 0.45 μm Millex-GV filters. Data were collected at increments of 1° C., and the cumulant fit hydrodynamic radius was taken as the radius. The Tt was defined as the temperature at which aggregates of size hundreds of nanometers were formed.
Each block co-polypeptide was analyzed by dynamic light scattering (DLS) at several temperatures between 4° C. and 37° C. to determine the thermal stability of the micelles, and to determine their radius of hydration (Rh). […] In contrast, RLP40-ELP80 (SEQ ID NO: 84) and RLP40-ELP80-Fn3 (SEQ ID NO: 96) self-assembled into micelles with a Rh of 30 and 32 nm, respectively, between 20-37° C. (FIG. 15).
Therefore, to get a more accurate picture, we monitored the Rh as we slowly cooled the solution. We observed two different overall behaviors. [S]-40-[QHN]-40 (SEQ ID NO: 100) upon cooling underwent a clear unimer to micelle transition at ˜55° C. and a clear micelle to aggregate transition at 28° C. (FIG. 32B). A unimer to micelle transition that is temperature dependent is known as the critical micellization temperature (CMT). As we know from before, this UCST aggregation temperature is dependent on the solution concentration. [S]-80-[QHN]-40 (SEQ ID NO: 101) remained a micelle at the highest temperature we could measure with the instrument. Upon cooling the size of the aggregate increased slightly until a clear aggregate transition at 18° C.

[2] = Static and dynamic light scattering (SLS/DLS) of block co-polypeptides
Procedure, shortened: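 Samples at 10 μM in PBS (140 mM NaCl, 10 mM phosphate, 3 mM KCl, pH 7.4), filtered 0.45 μm, measured at 15 °C over 30°–150° in 5° steps. Rh from cumulant fit of DLS, extrapolated to zero angle. Rg and MW from partial Zimm plots of SLS.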

[3] = DLS of native and crosslinked pAzF diblock constructs in PBS and GuHCl; conditions: for hydrodynamic radius (DLS): Table 12, crosslinked UAA5-40-K8D4 ligand constructs
Description: We wanted to thoroughly investigate the effects of pAzF-introduction as well as nanoparticle crosslinking on nanoparticle self-assembly. For this, we started by characterizing solely our five different ELP/RLP diblock architectures without any C-terminal functionalization. After expression and purification of the diblock constructs using ITC, the pAzF-containing constructs were crosslinked in solution by exposure to UV irradiation and characterized using dynamic light scattering (DLS). […] Generally, both processes seem to have increased the measured radii with this effect being more pronounced for the worm-forming constructs.
Apart from changes in nanoparticle morphology we were particularly interested in the effect pAzF-crosslinking had on their stability. […] GuHCl is a well-known denaturing agent that disrupts any inter- and intramolecular electrostatic forces and completely breaks down the quaternary, tertiary and secondary structure of most known proteins. Covalent bonds—such as the ones formed by pAzF-crosslinking—however remain unaffected by GuHCl, thus, the addition of this denaturing agent was expected to give us insights on the stability of our crosslinked nanoparticles. […] All native samples on the other hand resorted to complete unimerization upon exposure to GuHCl. As the Rh values for the crosslinked particles in GuHCl were generally larger than in PBS, the DLS data furthermore indicates a swelling behavior in the presence of the denaturing agent. This can most probably be attributed to the RLP core which is assumed to be completely collapsed in PBS but will however try to reach an elongated, random-coil morphology in the presence of GuHCl.
The first step of the characterization process was to produce crosslinked particles for the functionalized diblock constructs and to analyze whether the attachment of the ligands had caused any significant changes in particle size. […] Whatever the reason was, it had no effect on the crosslinking process as the particles still remained stable after GuHCl exposure.
Dynamic light scattering of cross-linkable protein nanoparticles was performed. […] However, these crosslinked particles remain assembled, actually growing slightly in size due to chain swelling of the core and corona in this new buffer. These novel scaffolds support various targeting domains and assemble into nearly identically sized nanoparticles between […] in hydrodynamic radius.

[4] = 15 μm in 7.2M GuHCl, crosslinked
[5] = 15 μm in 7.2M GuHCl, native (not crosslinked)
[6] = 15 μm in PBS, native (not crosslinked)

B1: RLP20-ELP80: RLP-ELP block co-polypeptide, (QYPSDGRG)20-(VPG[A:G]G)80 (protein)
chain: QYPSDGRGQYPSDGRGQYPSDGRGQYPSDGRGQYPSDGRGQYPSDGRGQYPSDGRGQYPSDGRGQYPSDGRGQYPSDGRGQYPSDGRGQYPSDGRGQYPSDGRGQYPSDGRGQYPSDGRGQYPSDGRGQYPSDGRGQYPSDGRGQYPSDGRGQYPSDGRGGAGVPGGGVPGAGVPGGGVPGAGVPGGGVPGAGVPGGGVPGAGVPGGGVPGAGVPGGGVPGAGVPGGGVPGAGVPGGGVPGAGVPGGGVPGAGVPGGGVPGAGVPGGGVPGAGVPGGGVPGAGVPGGGVPGAGVPGGGVPGAGVPGGGVPGAGVPGGGVPGAGVPGGGVPGAGVPGGGVPGAGVPGGGVPGAGVPGGGVPGAGVPGGGVPGAGVPGGGVPGAGVPGGGVPGAGVPGGGVPGAGVPGGGVPGAGVPGGGVPGAGVPGGGVPGAGVPGGGVPGAGVPGGGVPGAGVPGGGVPGAGVPGGGVPGAGVPGGGVPGAGVPGGGVPGAGVPGGGVPGAGVPGGGVPGAGVPGGGVPGAGVPGGGVPGAGVPGGGVPGAGVPGGGVPGAGVPGGGVP
[1]
  Rh (DLS at several temperatures): ~7 nm
[2]
  hydrodynamic radius (Rh): 5.5 nm
[2]; Table 1, 10 μM in PBS, 15 °C
  Rh (nm): 5.5 nm

B2: UAA2-40: pAzF-containing sphere-forming diblock construct, two pAzF residues per polypeptide chain (protein)
chain: QYPSDGRGQYPSDGRGQYPSDGRGQYPSDGRGQYPSDGRGQYPSDGRGQYPSDGRGQYPSDGRGQYPSDGRGQYPSDGRGQYPSDGRGQYPSDGRGQYPSDGRGQYPSDGRGQYPSDGRGQYPSDGRGQYPSDGRGQYPSDGRGQYPSDGRGQYPSDGRG[Phe(4-N3)]QYPSDGRGQYPSDGRGQYPSDGRGQYPSDGRGQYPSDGRGQYPSDGRGQYPSDGRGQYPSDGRGQYPSDGRGQYPSDGRGQYPSDGRGQYPSDGRGQYPSDGRGQYPSDGRGQYPSDGRGQYPSDGRGQYPSDGRGQYPSDGRGQYPSDGRGQYPSDGRG[Phe(4-N3)]
[3]; [4]
  RH (nm): 54.1 ± 2.0 nm
[3]; [5]
  RH (nm): 7.0 ± 1.1 nm
[3]; 15 μm in PBS, crosslinked
  RH (nm): 29.8 ± 0.3 nm
[3]; [6]
  RH (nm): 28.1 ± 0.2 nm

B3: UAA5-40: pAzF-containing sphere-forming diblock construct (protein)
chain: QYPSDGRGQYPSDGRGQYPSDGRGQYPSDGRGQYPSDGRGQYPSDGRGQYPSDGRGQYPSDGRGQYPSDGRGQYPSDGRGQYPSDGRGQYPSDGRGQYPSDGRGQYPSDGRGQYPSDGRGQYPSDGRGQYPSDGRGQYPSDGRGQYPSDGRGQYPSDGRG[Phe(4-N3)]QYPSDGRGQYPSDGRGQYPSDGRGQYPSDGRGQYPSDGRGQYPSDGRGQYPSDGRGQYPSDGRGQYPSDGRGQYPSDGRGQYPSDGRGQYPSDGRGQYPSDGRGQYPSDGRGQYPSDGRGQYPSDGRGQYPSDGRGQYPSDGRGQYPSDGRGQYPSDGRG[Phe(4-N3)]QYPSDGRGQYPSDGRGQYPSDGRGQYPSDGRGQYPSDGRGQYPSDGRGQYPSDGRGQYPSDGRGQYPSDGRGQYPSDGRGQYPSDGRGQYPSDGRGQYPSDGRGQYPSDGRGQYPSDGRGQYPSDGRGQYPSDGRGQYPSDGRGQYPSDGRGQYPSDGRG[Phe(4-N3)]QYPSDGRGQYPSDGRGQYPSDGRGQYPSDGRGQYPSDGRGQYPSDGRGQYPSDGRGQYPSDGRGQYPSDGRGQYPSDGRGQYPSDGRGQYPSDGRGQYPSDGRGQYPSDGRGQYPSDGRGQYPSDGRGQYPSDGRGQYPSDGRGQYPSDGRGQYPSDGRG[Phe(4-N3)]
[3]; [4]
  RH (nm): 52.1 ± 1.0 nm
[3]; [5]
  RH (nm): 5.9 ± 1.6 nm
[3]; 15 μm in PBS, crosslinked
  RH (nm): 34.3 ± 0.3 nm
[3]; [6]
  RH (nm): 29.8 ± 0.2 nm
[3]; Table 11, crosslinked UAA5-40-K8D4-ligand constructs, 0.7 μM in 7.2M GuHCl
  RH (nm): 52.1 ± 1.0 nm
[3]; Table 11, crosslinked UAA5-40-K8D4-ligand constructs, 7 μM in PBS
  RH (nm): 34.3 ± 0.3 nm
[3]; 0.7 μM in 7.2M GuHCl
  hydrodynamic radius (DLS): 52.1 ± 1.0
[3]; 7 μM in PBS
  hydrodynamic radius (DLS): 34.3 ± 0.3
